One substance from paper doi:10.1101/2021.04.01.438122 can be followed below.

This assay addresses human Angiotensin Converting Enzyme 2 (amino acids 19-615) fused to human IgG Fc (human) (UniProt Q9BYF1). Description: SPR.

In turn, “SARS-CoV-2 receptor binding domain (RBD amino acids 330-532) with the Y489R mutation (domain or fragment)” displayed a reduction of binding against RBD-WT of 94%.
